Publication doi:10.1101/2022.07.08.499339 (bioRxiv, 2022)

Legend:
[1] = biological target: hMIGA2_(long)-6xhis (human) (UniProt Q7L4E1); test: native MS
SEC = biological target: the molecule itself; test: SEC

Molecule	stoichiometry N [1]	stoichiometry N (SEC)
hMIGA2_(long)-6xhis (from UniProt Q7L4E1 170-593) (domain or fragment)	2	
CeMIGA2_(long), C. elegans MIGA (106-496) (domain or fragment, UniProt Q21096 106-496, looked up) SMNPIEADITSGQELCTELRKTIEKVHHNLEMVKNRSSKDMERSIKIEGILKGLKQVEDEIVLLVPQMEDFRDDNMEFYSVSGGSGYAGSVRTGRSRTLSVLSDDSFRSAVEEFACDIDDIDFVSDAANLDKNELRFLDEGMQAALNGEVKYRKSRMEFCKCDSETDFAAKLYCVRQALTNALKDEHKRVWLAKCGRTLLADFIRHTKQDPVKFFNAYDEMLEYVSNDRNEEQLRQDVEGRGVCETGFYDVAIDFIILDAFEDLKSPPSAVYSVTKNYFMSMSMKYSTLNTIIWSIIKSKRQRLKNPDGFIAKFYNISETVMPAITLGFLGTDERLGELCQYFKEQVVQFVLDVFNTQKVCYRSLEEMSEDVWIVMRNRLEAVQTRMSNEL		2
